Experimental data as given in paper PMC5389570 (Nucleic Acids Research, 2017).

Molecular target: heterotrimeric human RPA (RPA70, RPA32, RPA14) (human, UniProt P27694;P15927;P35244)
Test: SPR

heterotrimeric human RPA (RPA70, RPA32, RPA14), sequence (P27694 whole entry, chain 1 of 3): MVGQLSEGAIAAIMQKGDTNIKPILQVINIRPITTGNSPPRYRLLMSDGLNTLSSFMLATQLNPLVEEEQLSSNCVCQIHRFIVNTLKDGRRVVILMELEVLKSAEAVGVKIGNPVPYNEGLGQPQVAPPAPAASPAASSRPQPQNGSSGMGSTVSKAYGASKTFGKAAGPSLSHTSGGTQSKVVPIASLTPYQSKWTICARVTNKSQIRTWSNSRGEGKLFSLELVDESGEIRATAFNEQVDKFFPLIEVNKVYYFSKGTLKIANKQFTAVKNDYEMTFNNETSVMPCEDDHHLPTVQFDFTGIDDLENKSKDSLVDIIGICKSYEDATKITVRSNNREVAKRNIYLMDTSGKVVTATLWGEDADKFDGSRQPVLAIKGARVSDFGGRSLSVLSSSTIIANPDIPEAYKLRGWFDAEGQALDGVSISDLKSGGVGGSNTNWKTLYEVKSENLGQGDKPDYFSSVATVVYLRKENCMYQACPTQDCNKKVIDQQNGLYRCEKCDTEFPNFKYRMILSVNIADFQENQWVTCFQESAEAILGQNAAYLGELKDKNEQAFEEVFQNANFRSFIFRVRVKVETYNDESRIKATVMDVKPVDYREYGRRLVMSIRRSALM
heterotrimeric human RPA (RPA70, RPA32, RPA14), sequence (P15927 whole entry, chain 2 of 3): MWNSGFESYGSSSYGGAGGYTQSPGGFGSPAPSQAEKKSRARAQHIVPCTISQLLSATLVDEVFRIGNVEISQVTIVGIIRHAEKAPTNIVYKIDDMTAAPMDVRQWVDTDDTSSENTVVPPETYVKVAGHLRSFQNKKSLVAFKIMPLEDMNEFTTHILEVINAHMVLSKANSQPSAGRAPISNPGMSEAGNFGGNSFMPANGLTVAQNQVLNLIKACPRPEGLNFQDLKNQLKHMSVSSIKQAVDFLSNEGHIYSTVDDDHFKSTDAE
heterotrimeric human RPA (RPA70, RPA32, RPA14), sequence (P35244 whole entry, chain 3 of 3): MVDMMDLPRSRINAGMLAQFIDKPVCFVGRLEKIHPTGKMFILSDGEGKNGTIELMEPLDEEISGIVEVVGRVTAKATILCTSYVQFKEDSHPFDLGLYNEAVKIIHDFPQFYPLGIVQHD

Kd: 115 nM
B1: human Cdc45 (cell division cycle protein 45), recombinant, C-terminal His6 tag (natural protein)
chain: MFVSDFRKEFYEVVQSQRVLLFVASDVDALCACKILQALFQCDHVQYTLVPVSGWQELETAFLEHKEQFHYFILINCGANVDLLDILQPDEDTIFFVCDTHRPVNVVNVYNDTQIKLLIKQDDDLEVPAYEDIFRDEEEDEEHSGNDSDGSEPSEKRTRLEEEIVEQTMRRRQRREWEARRRDILFDYEQYEYHGTSSAMVMFELAWMLSKDLNDMLWWAIVGLTDQWVQDKITQMKYVTDVGVLQRHVSRHNHRNEDEENTLSVDCTRISFEYDLRLVLYQHWSLHDSLCNTSYTAARFKLWSVHGQKRLQEFLADMGLPLKQVKQKFQAMDISLKENLREMIEESANKFGMKDMRVQTFSIHFGFKHKFLASDVVFATMSLMESPEKDGSGTDHFIQALDSLSRSNLDKLYHGLELAKKQLRATQQTIASCLCTNLVISQGPFLYCSLMEGTPDVMLFSRPASLSLLSKHLLKSFVCSTKNRRCKLLPLVMAAPLSMEHGTVTVVGIPPETDSSDRKNFFGRAFEKAAESTSSRMLHNHFDLSVIELKAEDRSKFLDALISLLS
